From US20140377289A1, “Metallodrugs Having Improved Pharmacological Properties, and Methods of Manufacture and Use Thereof” (MetalloPharm, LLC, priority 2011, published 2014)
Where no end group is shown, it is not given here.

Assays:
[1] = biological target: HCV protease (hepatitis C virus (HCV)); experiment: affinity of metallopeptide for HCV protease; method not described
[2] = biological target: Recombinant human somatic ACE (sACE-1: Leu30-Leu1261, with C-terminal His tag) (human) (UniProt P12821); experiment: affinity calculated from the IC50 of sACE-1 inhibition (fluorogenic substrate cleavage, 37 C, pH 7.4)
Recombinant human somatic ACE (sACE-1: Leu30-Leu1261, with C-terminal His tag) (human), sequence (P12821 30-1261 limits assumed): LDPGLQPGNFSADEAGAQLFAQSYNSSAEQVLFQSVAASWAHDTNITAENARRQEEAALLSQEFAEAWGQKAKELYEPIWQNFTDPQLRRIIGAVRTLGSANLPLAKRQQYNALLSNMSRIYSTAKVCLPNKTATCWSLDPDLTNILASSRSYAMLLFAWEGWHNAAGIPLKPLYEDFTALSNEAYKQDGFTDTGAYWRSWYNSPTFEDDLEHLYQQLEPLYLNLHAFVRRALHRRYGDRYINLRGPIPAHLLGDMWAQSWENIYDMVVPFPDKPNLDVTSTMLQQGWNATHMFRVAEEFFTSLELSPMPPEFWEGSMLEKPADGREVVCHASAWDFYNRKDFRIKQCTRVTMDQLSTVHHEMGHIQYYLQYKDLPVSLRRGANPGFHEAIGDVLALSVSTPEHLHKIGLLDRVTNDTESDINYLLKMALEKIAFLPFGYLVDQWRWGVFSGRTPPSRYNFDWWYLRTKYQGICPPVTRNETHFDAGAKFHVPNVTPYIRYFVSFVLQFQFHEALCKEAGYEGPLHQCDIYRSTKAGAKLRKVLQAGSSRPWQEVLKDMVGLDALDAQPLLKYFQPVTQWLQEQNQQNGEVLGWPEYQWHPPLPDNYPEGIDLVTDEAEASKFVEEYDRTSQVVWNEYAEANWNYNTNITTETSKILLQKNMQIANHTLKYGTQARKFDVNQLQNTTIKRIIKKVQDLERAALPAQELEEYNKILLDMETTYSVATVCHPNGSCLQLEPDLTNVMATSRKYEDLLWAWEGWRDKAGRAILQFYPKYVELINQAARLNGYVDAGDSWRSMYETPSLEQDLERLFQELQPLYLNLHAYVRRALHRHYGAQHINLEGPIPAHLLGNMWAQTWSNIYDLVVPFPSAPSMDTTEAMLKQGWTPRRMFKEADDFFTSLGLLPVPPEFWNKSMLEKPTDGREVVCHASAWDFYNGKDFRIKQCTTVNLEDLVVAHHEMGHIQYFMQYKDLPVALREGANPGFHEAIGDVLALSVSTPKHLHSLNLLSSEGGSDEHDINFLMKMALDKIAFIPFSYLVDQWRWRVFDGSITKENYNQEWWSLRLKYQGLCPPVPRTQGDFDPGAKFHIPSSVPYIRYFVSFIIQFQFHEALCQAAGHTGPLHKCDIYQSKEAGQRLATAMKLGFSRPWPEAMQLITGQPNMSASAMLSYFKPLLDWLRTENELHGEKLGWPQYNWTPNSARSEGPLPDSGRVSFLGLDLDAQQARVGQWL

[3] = biological target: Recombinant human somatic ACE (sACE-1: Leu30-Leu1261, with C-terminal His tag) (human) (UniProt P12821); experiment: cell-based or functional assay

Row | Substance | affinity [1] [µM] | Ka [2] [M⁻¹] | IC50's (nM) for sACE-1 inhibition (fluorogenic substrate cleavage) [3] [nM]
1 | GGHDEMEEC | 48 | – | –
2 | [Cu-GGH]^1- (peptide) | – | 59000 | 17000
